Where two headings read alike, the source gives them in different places.
Columns and labels:
[1] = target: T1, CspC (C-terminal His-tagged) (Staphylococcus aureus Newman, UniProt O33592 1-66); test: EMSA
[2] = target: T1, CspC (C-terminal His-tagged); test: EMSA; remark: listed apart in the source

Binder	binding result [1]	binding result [2]
GTCGACTTTTTTTTTTTTTTTTTTTT (ssDNA) [ssDNA1]	binds	–
AAGTGTATAATGAAAG (ssDNA) [ssDNA3]	–	no binding
